Measurements taken from paper PMC6110070.

How the values were obtained:
[1] = biological target: Lys65 (UniProt position 66, AAGANKVAVIK); settings: Not stated. Ref 16 concerns affinity labelling of bL12 in situ on E. coli 70S ribosomes with a tRNA dialdehyde derivative.; cited from earlier work
[2] = biological target: recombinant E. coli ribosomal protein bL12 (L12), C-terminally His-tagged, as purified: (L7/L12)2 (E. coli) (UniProt P0A7K2); assay: SEC; Superdex 75 column, elution followed at 280 nm and 260 nm, column calibrated with protein markers; apparent molecular weight about 50 kDa; oligomer of 13 kDa chains

| stoichiometry N [2] | Substance | pKa [1] |
| --- | --- | --- |
|  | 50S ribosomal protein bL12 (L7/L12) (Escherichia coli) | 7.2 |
| 4 | recombinant E. coli ribosomal protein bL12 (L12), C-terminally His-tagged, as purified: (L7/L12)2 (from UniProt P0A7K2 1-121; P0A7K2 1-121) (natural protein) |  |
